# Positions count from the first letter of the chain named. Like-named read-outs stand apart in the source and are kept apart here.
# T1: human FcγRIIb extracellular domain with C-terminal His tag (human, UniProt P31994 43-217)
# T1 sequence (looked up): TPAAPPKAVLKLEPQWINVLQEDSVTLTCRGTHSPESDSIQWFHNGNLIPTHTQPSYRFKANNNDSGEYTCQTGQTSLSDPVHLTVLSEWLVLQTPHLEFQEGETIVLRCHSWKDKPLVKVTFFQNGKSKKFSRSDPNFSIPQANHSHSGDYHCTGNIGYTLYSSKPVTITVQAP
# T2: human FcγRIIa type R (131Arg) extracellular domain with C-terminal His tag (human, UniProt P12318 34-217)
# T2 sequence (looked up): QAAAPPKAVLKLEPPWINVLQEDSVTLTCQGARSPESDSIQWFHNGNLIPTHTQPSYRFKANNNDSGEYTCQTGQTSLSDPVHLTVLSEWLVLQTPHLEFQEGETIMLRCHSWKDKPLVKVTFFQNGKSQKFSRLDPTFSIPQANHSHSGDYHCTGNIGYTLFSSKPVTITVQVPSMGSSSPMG
# T3: human FcγRIIb extracellular domain with C-terminal His tag (human, UniProt P31994 43-217)
# T3 sequence (looked up): T1 sequence (looked up)
# T4: human FcγRIIa type H (131His) extracellular domain with C-terminal His tag (human, UniProt P12318 34-217)
# T4 sequence (looked up): T2 sequence (looked up) with R134H
# T5: human FcγRIIa type R extracellular domain with C-terminal His tag (human, UniProt P12318 34-217)
# T5 sequence (looked up): T2 sequence (looked up)
# T6: human FcγRIIa type H extracellular domain with C-terminal His tag (human, UniProt P12318 34-217)
# T6 sequence (looked up): T2 sequence (looked up) with R134H
# T7: human FcγRIIa type R extracellular domain with C-terminal His tag (human, UniProt P12318 34-217)
# T7 sequence (looked up): T2 sequence (looked up)
# B1: IL6R-BP087/IL6R-L (antibody, human IgG1, kappa)
# heavy: QVQLQESGPGLVKPSETLSLTCAVSGHSISHDHAWSWVRQPPGEGLEWIGFISYSGITNYNPSLQGRVTISRDNSKNTLYLQMNSLRAEDTAVYYCARSLARTTAMDYWGEGTLVTVSSASTKGPSVFPLAPSSKSTSGGTAALGCLVKDYFPEPVTVSWNSGALTSGVHTFPAVLQSSGLYSLSSVVTVPSSSLGTQTYICNVNHKPSNTKVDKKVEPKSCDKTHTCPPCPAPEYLGGDSVFLFPPKPKDTLMISRTPEVTCVVVDVSHEDPEVKFNWYVDGVEVHNAKTKPREEQYNSTYRVVSVLTVLHQDWLNGKEYKCKVSNKALPKPIEKTISKAKGQPREPQVYTLPPSRDELTKNQVSLTCLVKGFYPSDIAVEWESNGQPENNYKTTPPVLDSDGSFFLYSKLTVDKSRWQQGNVFSCSVMHEALHNHYTQESLSLSP
# light: not shown
# B2: IL6R-BP483/IL6R-L (antibody, human IgG1, kappa)
# heavy: B1 heavy with E235D, Y236L, G239D, V268L, S269A, H270E, P273G, K332A
# light: not shown
# B3: IL6R-BP425/IL6R-L (antibody, human IgG1, kappa)
# heavy: B1 heavy with E235D, Y236L, G239D, V268L, S269A, H270E, P273G, K332R
# light: not shown
# B4: IL6R-BP556/IL6R-L (antibody, human IgG1, kappa)
# heavy: B1 heavy with Y236L, G239D, V266I, S269G, H270E, P273G, Y298D, K332R
# light: not shown
# B5: IL6R-BP436/IL6R-L (antibody, human IgG1, kappa)
# heavy: B1 heavy with E235D, Y236L, G239D, S269A, H270E, P273G, Y298D, K332R, I334T
# light: not shown
# B6: IL6R-BP493/IL6R-L (antibody, human IgG1, kappa)
# heavy: B1 heavy with Y236L, V266I, S269A, H270E, P273G, Y298D, K332A
# light: not shown
# B7: IL6R-BP183/IL6R-L (antibody, human IgG1, kappa)
# heavy: B1 heavy with E235D, P273G, K328A
# light: not shown
# B8: IL6R-BP184/IL6R-L (antibody, human IgG1, kappa)
# heavy: B1 heavy with E235D, Y236L, P273G
# light: not shown
# B9: IL6R-BP204/IL6R-L (antibody, human IgG1, kappa)
# heavy: B1 heavy with E235D, Y236L, P273G, K328A, K332R
# light: not shown
# B10: IL6R-BP488/IL6R-L (antibody, human IgG1, kappa)
# heavy: B1 heavy with E235D, Y236L, G239D, V266I, S269A, H270E, P273G, Y298D, K332R
# light: not shown
# B11: IL6R-BP492/IL6R-L (antibody, human IgG1, kappa)
# heavy: B1 heavy with Y236L, V266I, S269A, H270E, P273G, K332A
# light: not shown
# B12: IL6R-BP149/IL6R-L (antibody, human IgG1, kappa)
# heavy: B1 heavy with E235D, G239D, Y298D, K328A
# light: not shown
# B13: IL6R-BP213/IL6R-L (antibody, human IgG1, kappa)
# heavy: B1 heavy with E235D, Y236L, H270D, P273G, K332R
# light: not shown
# B14: IL6R-BP143/IL6R-L (antibody, human IgG1, kappa)
# heavy: B1 heavy with K328A, K332A
# light: not shown
# B15: IL6R-BP441/IL6R-L (antibody, human IgG1, kappa)
# heavy: B1 heavy with E235D, Y236L, G239D, V268L, H270E, P273G, K332R
# light: not shown
# B16: IL6R-BP431/IL6R-L (antibody, human IgG1, kappa)
# heavy: B1 heavy with E235D, Y236L, G239D, S269G, H270E, E271D, P273G, K332R
# light: not shown
# B17: IL6R-BP435/IL6R-L (antibody, human IgG1, kappa)
# heavy: B1 heavy with E235D, Y236L, G239D, H270D, P273G, Y298D, K328A, K332R, I334T
# light: not shown
# B18: IL6R-BP209/IL6R-L (antibody, human IgG1, kappa)
# heavy: B1 heavy with Y236L, G239D, H270D, P273G, K328A, K332R
# light: not shown
# B19: IL6R-BP186/IL6R-L (antibody, human IgG1, kappa)
# heavy: B1 heavy with E235D, G239D, P273G, Y298D, K328A
# light: not shown
# B20: IL6R-BP440/IL6R-L (antibody, human IgG1, kappa)
# heavy: B1 heavy with E235D, Y236L, G239D, V266I, H270E, P273G, K332R
# light: not shown
# B21: IL6R-BP481/IL6R-L (antibody, human IgG1, kappa)
# heavy: B1 heavy with E235D, Y236L, G239D, V266I, S269A, H270E, P273G, K332A
# light: not shown
# B22: IL6R-BP132/IL6R-L (antibody, human IgG1, kappa)
# heavy: B1 heavy with E235D, Y236L, K328A
# light: not shown
# B23: BP549 (antibody, human IgG1, kappa)
# heavy: B1 heavy with Y236L, G239D, S269G, H270E, P273G, K332R
# light: not shown
# B24: IL6R-BP265/IL6R-L (antibody, human IgG1, kappa)
# heavy: B1 heavy with Y236L, G239D, H270E, P273G, Y298D, K332R
# light: not shown
# B25: IL6R-BP487/IL6R-L (antibody, human IgG1, kappa)
# heavy: B1 heavy with E235D, Y236L, G239D, V266I, S269A, H270E, P273G, K332R, P398M
# light: not shown
# B26: IL6R-BP491/IL6R-L (antibody, human IgG1, kappa)
# heavy: B1 heavy with Y236L, G239D, V266I, S269A, H270E, P273G, Y298D, K332R
# light: not shown
# B27: IL6R-BP498/IL6R-L (antibody, human IgG1, kappa)
# heavy: B1 heavy with E235D, Y236L, G239D, V266I, S269A, H270E, P273G, K332R, P398L
# light: not shown
# B28: IL6R-BP535/IL6R-L (antibody, human IgG1, kappa)
# heavy: QVQLQESGPGLVKPSETLSLTCAVSGHSISHDHAWSWVRQPPGEGLEWIGFISYSGITNYNPSLQGRVTISRDNSKNTLYLQMNSLRAEDTAVYYCARSLARTTAMDYWGEGTLVTVSSASTKGPSVFPLAPSSKSTSGGTAALGCLVKDYFPEPVTVSWNSGALTSGVHTFPAVLQSSGLYSLSSVVTVPSSSLGTQTYICNVNHKPSNTKVDKKVEPKSCDKTHTCPPCPAPDLLGDDSVFLFPPKPKDTLMISRTPEVTCVVIDVGEEDGEVKFNWYVDGVEVHNAKTKPREEQDNSTYRVVSVLTVLHQDWLNGKEYKCKVSNKGLPRPIEKTISKAKGQPREPQVYTLPPSRDELTKNQVSLTCLVKGFYPSDIAVEWESNGQPENNYKTTPMVLDSDGSFFLYSKLTVDKSRWQQGNVFSCSVMHEALHNHYTQESLSLSP
# light: not shown
# B29: IL6R-BP479/IL6R-L (antibody, human IgG1, kappa)
# heavy: B28 heavy with V268L, G269A, D298Y, G329A, R332A, M398P
# light: not shown
# B30: IL6R-BP496/IL6R-L (antibody, human IgG1, kappa)
# heavy: B28 heavy with G269A, G329A, R332A, M398P
# light: not shown
# B31: IL6R-BP268/IL6R-L (antibody, human IgG1, kappa)
# heavy: B28 heavy with I266V, G269S, G329A, R332A, M398P
# light: not shown
# B32: IL6R-BP150/IL6R-L (antibody, human IgG1, kappa)
# heavy: B1 heavy with G239D, K328A, K332R
# light: not shown
# B33: IL6R-BP480/IL6R-L (antibody, human IgG1, kappa)
# heavy: B28 heavy with I266V, V268L, G269S, E271D, D298Y, G329A, R332A, M398P
# light: not shown
# Key:
# [1] = target: human FcγRIa extracellular domain with C-terminal His tag (human, UniProt P12314 16-292); test: SPR
# Target sequence in this assay (P12314 16-292): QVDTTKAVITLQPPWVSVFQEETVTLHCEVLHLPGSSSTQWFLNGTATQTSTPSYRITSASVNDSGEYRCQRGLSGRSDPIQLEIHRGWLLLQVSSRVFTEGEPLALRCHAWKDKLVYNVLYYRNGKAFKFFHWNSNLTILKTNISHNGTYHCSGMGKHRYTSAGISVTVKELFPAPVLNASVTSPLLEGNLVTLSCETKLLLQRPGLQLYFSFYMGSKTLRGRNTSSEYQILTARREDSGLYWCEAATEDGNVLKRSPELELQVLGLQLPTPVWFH
# [2] = target: T1, human FcγRIIb extracellular domain with …; test: ratio of SPR KDs
# [3] = target: T1, human FcγRIIb extracellular domain with …; test: ratio of SPR KDs; remark: listed apart in the source
# [4] = target: T2, human FcγRIIa type R (131Arg) …; test: SPR
# [5] = target: T1, human FcγRIIb extracellular domain with …; test: SPR
# [6] = target: T3, human FcγRIIb extracellular domain with …; test: SPR; remark: listed apart in the source
# [7] = target: human FcγRIa extracellular domain with C-terminal His tag (human, UniProt P12314 16-292); test: SPR; remark: listed apart in the source
# Target sequence in this assay (P12314 16-292): as above
# [8] = target: T3, human FcγRIIb extracellular domain with …; test: SPR; remark: listed apart in the source
# [9] = target: T4, human FcγRIIa type H (131His) …; test: SPR
# [10] = target: T5, human FcγRIIa type R extracellular …; test: SPR
# [11] = target: human FcγRIIIa type V extracellular domain with C-terminal His tag (human, UniProt P08637 17-208); test: SPR
# Target sequence in this assay (P08637 17-208 F176V): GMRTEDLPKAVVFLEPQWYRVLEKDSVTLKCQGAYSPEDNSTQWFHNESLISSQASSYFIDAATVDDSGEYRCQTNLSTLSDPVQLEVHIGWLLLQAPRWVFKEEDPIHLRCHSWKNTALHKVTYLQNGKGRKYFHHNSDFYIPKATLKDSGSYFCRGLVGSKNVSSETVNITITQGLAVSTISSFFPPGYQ
# [12] = target: T6, human FcγRIIa type H extracellular …; test: SPR
# [13] = target: T4, human FcγRIIa type H (131His) …; test: SPR; remark: listed apart in the source
# [14] = target: human FcγRIIIa type V extracellular domain with C-terminal His tag (human, UniProt P08637 17-208); test: SPR; remark: listed apart in the source
# Target sequence in this assay (P08637 17-208 F176V): as above
# [15] = target: T7, human FcγRIIa type R extracellular …; test: SPR; remark: listed apart in the source
# [16] = target: T1, human FcγRIIb extracellular domain with …; test: ratio of SPR KDs; remark: listed apart in the source
binder,measurement,setting,value
B1,Kd,[1],3800 nM
B2,KD (IIaH)/KD (IIb),[2],230
same,KD (IIaR)/KD (IIb),[3],16
same,Kd,[4],13 nM
B3,Kd,[5],0.1 nM
B4,KD (IIaR)/KD (IIb),[6],35.4
same,Kd,[7],49 nM
same,KD (IIaH)/KD (IIb),[8],692
B5,Kd,[5],51 nM
B6,Kd,[9],13000 nM
same,Kd,[4],11 nM
B7,Kd,[10],2500 nM
B8,Kd,[11],68 nM
B9,Kd,[12],2100 nM
B10,KD (IIaH)/KD (IIb),[2],865
same,Kd,[13],1800 nM
B11,KD (IIaH)/KD (IIb),[2],670
same,Kd,[14],30000 nM
same,Kd,[9],15000 nM
same,KD (IIaR)/KD (IIb),[3],30.3
B12,Kd,[15],14000 nM
B13,Kd,[11],65000 nM
B14,Kd,[1],18 nM
B15,Kd,[9],3 nM
B16,Kd,[5],1.2 nM
B17,Kd,[4],120 nM
B18,Kd,[12],1000 nM
B19,Kd,[10],950 nM
B20,Kd,[9],1500 nM
B21,Kd,[9],8300 nM
B22,Kd,[15],80000 nM
B23,KD (IIaR)/KD (IIb),[6],35.9
same,Kd,[7],1800 nM
same,KD (IIaH)/KD (IIb),[8],696
B24,Kd,[4],830 nM
B25,KD (IIaR)/KD (IIb),[3],33.3
same,Kd,[13],40 nM
B26,KD (IIb) of parent polypeptide/KD (IIb) of altered polypeptide,[16],1020
same,KD (IIaR)/KD (IIb),[3],38.3
B27,KD (IIb) of parent polypeptide/KD (IIb) of altered polypeptide,[16],1870
same,KD (IIaR)/KD (IIb),[3],30.3
B28,Kd,[7],1.1 nM
B29,Kd,[5],5600 nM
B30,KD (IIb) of parent polypeptide/KD (IIb) of altered polypeptide,[16],166
B31,Kd,[4],1300 nM
B32,Kd,[1],300 nM
B33,Kd,[14],40000 nM
